This is an account of results in patent publication US20250074980A1 (BRIGHAM AND WOMEN S HOSPITAL, published 2025).

In experiment [1] the target is T1, CEACAM6 on transfected HeLa cells (human, UniProt P40199 35-320).
T1 construct: whole, on cells; also called HeLa-CEACAM6; HeLa C6
T1 sequence (looked up): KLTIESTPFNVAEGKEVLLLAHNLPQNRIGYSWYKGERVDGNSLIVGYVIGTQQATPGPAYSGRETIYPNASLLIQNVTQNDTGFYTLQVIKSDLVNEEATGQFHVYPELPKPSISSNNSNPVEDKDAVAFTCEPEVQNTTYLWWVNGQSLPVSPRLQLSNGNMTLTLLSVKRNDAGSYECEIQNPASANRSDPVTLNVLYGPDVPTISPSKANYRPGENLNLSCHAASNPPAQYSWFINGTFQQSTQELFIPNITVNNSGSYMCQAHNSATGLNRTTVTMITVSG
The experiment can be described thus: flow cytometry, transfected HeLa.

The target in experiment [2] is T2, CEACAM5 on transfected HeLa cells (human, UniProt P06731 35-685).
T2 construct: whole, on cells; also called HeLa-CEACAM5; HeLa C5
T2 sequence (looked up): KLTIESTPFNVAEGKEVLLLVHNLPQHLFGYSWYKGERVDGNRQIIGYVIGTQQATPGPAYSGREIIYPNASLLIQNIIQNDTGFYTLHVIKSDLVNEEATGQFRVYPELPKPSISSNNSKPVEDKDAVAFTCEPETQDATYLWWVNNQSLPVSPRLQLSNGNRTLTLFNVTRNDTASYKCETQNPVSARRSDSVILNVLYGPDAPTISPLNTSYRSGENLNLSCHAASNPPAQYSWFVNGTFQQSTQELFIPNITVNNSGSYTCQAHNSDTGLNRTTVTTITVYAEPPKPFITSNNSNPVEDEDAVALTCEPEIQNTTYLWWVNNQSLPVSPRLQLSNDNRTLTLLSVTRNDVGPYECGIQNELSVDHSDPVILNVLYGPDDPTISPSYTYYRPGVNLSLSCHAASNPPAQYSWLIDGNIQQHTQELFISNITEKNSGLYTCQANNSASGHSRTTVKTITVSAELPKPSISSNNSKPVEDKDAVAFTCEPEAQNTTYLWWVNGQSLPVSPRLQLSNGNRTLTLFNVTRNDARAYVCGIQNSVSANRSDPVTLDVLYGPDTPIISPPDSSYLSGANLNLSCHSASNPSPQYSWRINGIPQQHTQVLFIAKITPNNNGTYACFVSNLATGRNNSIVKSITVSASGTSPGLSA
The experiment can be described thus: flow cytometry, transfected HeLa.

For experiment [3], the target named is T3, CEACAM1 on transfected HeLa cells (human, UniProt P13688 35-526).
T3 construct: also called HeLa-CEACAM1; HeLa C1
T3 sequence: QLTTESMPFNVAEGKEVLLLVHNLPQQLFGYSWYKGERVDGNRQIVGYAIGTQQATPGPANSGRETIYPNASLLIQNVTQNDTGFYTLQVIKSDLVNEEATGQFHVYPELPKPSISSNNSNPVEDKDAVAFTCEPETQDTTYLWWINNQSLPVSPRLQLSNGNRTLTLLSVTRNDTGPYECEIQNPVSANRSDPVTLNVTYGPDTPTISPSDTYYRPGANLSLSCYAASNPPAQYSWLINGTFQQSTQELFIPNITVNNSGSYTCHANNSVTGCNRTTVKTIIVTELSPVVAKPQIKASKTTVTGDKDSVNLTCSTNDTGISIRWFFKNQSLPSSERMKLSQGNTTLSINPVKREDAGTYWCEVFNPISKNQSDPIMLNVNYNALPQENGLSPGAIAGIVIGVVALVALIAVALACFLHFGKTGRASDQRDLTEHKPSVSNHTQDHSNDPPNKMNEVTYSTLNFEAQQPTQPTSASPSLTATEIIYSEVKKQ
Nature of the experiment: flow cytometry, transfected HeLa. A general note: In flow cytometry, cells or beads pass a laser one at a time.

Experiment [4] deals with T4, His-tagged CEACAM1 (human, UniProt P13688 35-428).
T4 construct: 45 kDa SPR analyte; also called CEACAM1-HIS; CEACAM1 analyte
T4 sequence: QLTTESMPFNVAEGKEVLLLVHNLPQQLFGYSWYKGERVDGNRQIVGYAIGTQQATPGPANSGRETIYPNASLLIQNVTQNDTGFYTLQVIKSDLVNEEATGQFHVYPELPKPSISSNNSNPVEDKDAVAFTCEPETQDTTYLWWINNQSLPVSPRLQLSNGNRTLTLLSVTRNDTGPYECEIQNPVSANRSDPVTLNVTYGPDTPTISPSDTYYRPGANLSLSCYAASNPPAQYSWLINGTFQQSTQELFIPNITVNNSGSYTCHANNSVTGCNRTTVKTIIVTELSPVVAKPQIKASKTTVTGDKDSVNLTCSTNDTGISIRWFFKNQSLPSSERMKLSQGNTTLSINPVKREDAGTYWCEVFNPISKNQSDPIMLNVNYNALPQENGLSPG
Nature of the experiment: SPR single-cycle, purified IgG captured. In a few lines: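 Binding was measured by surface plasmon resonance in single-cycle kinetics mode on a Biacore T200, running in HBS-P+ (pH 7.4) at 25° C. His-tagged CEACAM1 served as analyte over purified IgG captured on a Series S Protein A chip. After subtraction of reference-channel and blank-run signals, kon, koff and Kd were fitted, and relative KD was expressed against the parent antibody from the same experiment.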

The target in experiment [5] is T5, CEACAM3 on transfected HeLa cells (human, UniProt P40198 35-252).
T5 construct: whole, on cells; also called HeLa-CEACAM3; HeLa C3
T5 sequence (looked up): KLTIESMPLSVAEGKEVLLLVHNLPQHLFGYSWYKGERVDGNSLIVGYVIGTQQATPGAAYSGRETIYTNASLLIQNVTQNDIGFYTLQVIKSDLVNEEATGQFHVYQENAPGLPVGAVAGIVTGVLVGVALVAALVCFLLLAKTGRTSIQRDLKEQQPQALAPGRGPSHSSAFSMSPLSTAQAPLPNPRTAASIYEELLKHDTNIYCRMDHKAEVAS
Nature of the experiment: flow cytometry, HeLa-CEACAM3 transfectants, % staining, stacked bars. An excerpt: FIG. 11 illustrates the binding selectivity of different affinity-matured CEACAM1 antibodies. […] HELA cells were transfected with vector alone (HeLa-Neo) or vectors expressing CEACAM1, CEACAM3, CEACAM5, or CEACAM6, respectively, and stained with the indicated antibodies. […] MOPC=mouse IgG1 control antibody. Mouse antibodies as positive control for transfected CEACAM isoforms: Col-1=CEACAM3 and CEACAM5 antibody. 9A6=CEACAM6 antibody. T84.1=CEACAM cross-reactive antibody and T84.66=CEACAM5 antibody. Only 2nd FITC=No primary antibody, only secondary FITC conjugated antibody. […] Data for affinity-matured antibodies 9B3_8H3/Vκ8 S29A, 8H3_9B3/CP08_E05, and 8H3_9C2/CPO08_F05, as well as data for CEACAM8 antibody 80H3 were omitted from the FIG. due to an unusually high background signal.

In experiment [6] the target is T4, His-tagged CEACAM1. Nature of the experiment: SPR single-cycle, supernatant IgG captured. The method, then:
In order to assess the binding of the humanized, affinity matured reformatted lead IgGs, single-cycle kinetics analysis was performed on crude supernatants using a Biacore T200 running Biacore T200 Control Software V2.0.1 and Biacore T200 Evaluation Software V3.0. Antibodies were diluted in HBS-P+ to a final concentration of 0.5 μg/ml. At the start of each cycle, antibodies were loaded onto Fc2, Fc3 and Fc4 of the Protein A chip. IgGs were captured at a flow rate of 10 μl/min to give an immobilisation level (RL) of ˜100 RU (a level calculated to obtain a Rₘₐₓ of ˜50-150 RU once the analyte is bound). The surface was then allowed to stabilize. Single-cycle kinetics data was obtained with CEACAM1 as the analyte at a flow rate of 80 μl/min to minimize any potential mass transfer effects. Multiple repeats with the parent (VH1/Vκ8 S29A) antibody were performed to check the stability of the surface and analyte over the kinetic cycles. The signal from the reference channel Fc1 (no antibody) was subtracted from that of Fc2, Fc3 and Fc4 to correct for differences in non-specific binding to the reference surface. A three point, two-fold dilution range from 70 nM to 280 nM CEACAM1 without regeneration between each concentration was used. The signal from each antibody blank run (no CEACAM1) was subtracted to correct for differences in surface stability. The association phase for the three injections of increasing concentrations of CEACAM1 was monitored for 80 seconds each time and a single dissociation phase was measured for 150 seconds following the last injection of CEACAM1. Regeneration of the Protein A surface was conducted using two injections of 10 mM glycine-HCL pH 1.5 followed by a stabilization period of 250 seconds.

Experiment [7] concerns the target T4, His-tagged CEACAM1. The experiment can be described thus: SPR single-cycle, supernatant IgG captured. In outline:
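Antibody IgG was produced by transient PEI transfection of HEK EBNA cells in 6-well plates, with supernatants collected 5-7 days later, quantified by ELISA and filtered. Binding was measured by single-cycle surface plasmon resonance on a Biacore T200 at 25° C in HBS-P+ (pH 7.4), capturing IgG on Protein A and flowing His-tagged CEACAM1 as analyte. Kon, koff and Kd were obtained by fitting, and relative KD was expressed against the parent antibody tested in the same experiment.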
This is another data set of the same source.

Experiment [8] has as its target T6, GST-CEACAM1 (human, UniProt P13688 35-141, limits assumed).
T6 construct: also called human CEACAM1-GST protein
T6 sequence: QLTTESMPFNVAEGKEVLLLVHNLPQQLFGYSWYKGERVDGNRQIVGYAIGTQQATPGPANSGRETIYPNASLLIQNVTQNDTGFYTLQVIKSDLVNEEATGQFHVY
Nature of the experiment: competition ELISA vs parental murine antibody. As for the experimental part: The binding of the purified antibodies to human CEACAM1 was assessed in a competition ELISA assay. Nunc Immuno MaxiSorp 96 well flat bottom microtitre plates were pre-coated with 1 μg/ml of GST-CEACAM1 in 1×PBS, overnight at 4° C. The following day the plates were blocked for 1 hour at room temperature (“RT”) with 2% BSA/PBS before washing 3× with PBST pH 7.4. A 3-fold dilution series of the chimeric antibody chimeric antibody VH0/Vκ0, an irrelevant IgG4 antibody, and the humanized CEACAM1 antibodies from 100 μg/ml to 0.07 or 0.002 μg/ml were pre-mixed with a constant concentration of parental murine antibody (0.45 μg/ml final concentration), added to the plate and incubated for 1 hour at room temperature. Following 3×PBST washes, the binding of the parental murine CEACAM1 antibody was detected with an anti-mouse-HRP and TMB substrate. The reaction was stopped with 3 M HCl, absorbance read at 450 nm on a Dynex Technologies MRX TC II plate reader and the binding curves plotted. The binding of the humanized CEACAM antibody variants to CEACAM1 was compared to the chimeric antibody (VHO/Vκ0), which was included on each plate.
(An ELISA detects its analyte on a solid surface through an enzyme-linked reagent.)

The target in experiment [9] is T4, His-tagged CEACAM1. The experiment can be described thus: SPR single-cycle, IgG captured. In outline:
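Biacore T200 single-cycle kinetics at 25° C in HBS-P+ (pH 7.4): antibodies (purified or HEK EBNA supernatant, 1 μg/ml) captured on Protein A to ~75 RU, His-tagged CEACAM1 analyte at 3.125–50 nM (5-point 2-fold) at 50 μl/min without regeneration. Reference channel Fc1 subtracted.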

Turning to irrelevant IgG4 antibody, the relative amount of cells bound was determined as 1.39 in [1], 1.02 in experiment [2] and 0.37 in experiment [3].

B1: 9B3_9E5/CP08E05 (antibody, IgG4, V domains shown)
VH: EVQLLESGGGLVQPGGSLRLSCAASGFTFNAHAISWVRQAPGKGLEWVATISSGGTYTYYPDSVKGRFTISRDNSKNTLYLQMNSLKAEDTAMYYCARHGFDYDAAWFAYWGQGTLVTVSS
VL: EIVLTQSPATLSLSPGERATLSCRANSAVSYMYWYQQKPGQAPRPWIYLTSNRATGVPARFSGSGSGTDYTLTISSLEPEDFAVYYCQQWTTNPPTFGQGTKLEIK
notes: IgG4 (S241P), kappa
For the molecule B1, in [4], the affinity, expressed as Kd, was 0.061 µM; the koff (usually a measure of how fast the partners let go of each other) was 0.007 s⁻¹; the on-rate (kon) (in general, the rate constant with which the complex forms) stood at 110000 M⁻¹ s⁻¹; the “relative KD to parent” value turned out to be 7.8. In [5], the binding result is “binds”. In experiment [6], the dissociation constant (Kd) (as a rule, the free concentration of one partner at which half of the binding sites on the other are occupied at equilibrium, for simple one-to-one binding) amounted to 0.067 µM; the dissociation rate constant (koff) was 0.0078 s⁻¹; the on-rate (kon) amounted to 120000 M⁻¹ s⁻¹; the “relative KD to parent” value turned out to be 8.3.

B2: CP09C02/CP08E05 (antibody, IgG4, V domains shown)
VH: EVQLLESGGGLVQPGGSLRLSCAASEFTFSDHAMSWVRQAPGKGLEWVATISSGGTYTYYPDSVKGRFTISRDNSKNTLYLQMNSLKAEDTAMYYCARHGFDYDAAWFAYWGQGTLVTVSS
VL: EIVLTQSPATLSLSPGERATLSCRANSAVSYMYWYQQKPGQAPRPWIYLTSNRATGVPARFSGSGSGTDYTLTISSLEPEDFAVYYCQQWTTNPPTFGQGTKLEIK
notes: IgG4 (S241P), kappa
B2: in experiment [4], the equilibrium dissociation constant (Kd) amounted to 0.072 µM, the off-rate (koff) is 0.007 s⁻¹, the kon was found to be 97000 M⁻¹ s⁻¹ and the “relative KD to parent” value stood at 6.6. Moreover, the binding result in experiment [5] is recorded as “binds”. Further, in experiment [7], the affinity, expressed as Kd, was 0.078 µM; the koff was found to be 0.0075 s⁻¹; the kon is 96000 M⁻¹ s⁻¹; the “relative KD to parent” value is 7.1.

B3: VH3/Vκ5 (antibody, IgG4, V domains shown)
VH: EVQLLESGGGLVQPGGSLRLSCAASGFIFSSHGMSWVRQAPGKGLEWVATISSGGTYTYYADSVKGRFTISRDNSKNTLYLQMNSLRAEDTAMYYCARHDFDYDAAWFAYWGQGTLVTVSS
VL: EIVLTQSPATLSLSPGERATLSCRANSSVSYMAWYQQKPGQAPRLLIYLTSNRATGIPARFSGSGSGTDFTLTISSLEPEDFAVYYCQQWSSNPPTFGQGTKLEIK
notes: IgG4 (S241P), kappa
Turning to B3, the binding result in [8] is given as “no binding (tested: 100 µg/ml)”; in [9], “no binding (tested: 50 nM)”.
